From patent publication US20220332804A1 (CSL INNOVATION, published 2022)
Positions count from the first letter of the chain named.

How the values were obtained:
Assay in all cases: SPR, KD relative to WT C2;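 further: biacore SPR at 37 °C, anti-C2 mAbs captured on anti-human IgG chips with alanine or serine point mutants of C2 as analyte, KD from 1:1 fit compared with wild-type C2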
human C2 F270A = biological target: T1, human C2 F270A (human, UniProt P06681 21-752)
T1 sequence: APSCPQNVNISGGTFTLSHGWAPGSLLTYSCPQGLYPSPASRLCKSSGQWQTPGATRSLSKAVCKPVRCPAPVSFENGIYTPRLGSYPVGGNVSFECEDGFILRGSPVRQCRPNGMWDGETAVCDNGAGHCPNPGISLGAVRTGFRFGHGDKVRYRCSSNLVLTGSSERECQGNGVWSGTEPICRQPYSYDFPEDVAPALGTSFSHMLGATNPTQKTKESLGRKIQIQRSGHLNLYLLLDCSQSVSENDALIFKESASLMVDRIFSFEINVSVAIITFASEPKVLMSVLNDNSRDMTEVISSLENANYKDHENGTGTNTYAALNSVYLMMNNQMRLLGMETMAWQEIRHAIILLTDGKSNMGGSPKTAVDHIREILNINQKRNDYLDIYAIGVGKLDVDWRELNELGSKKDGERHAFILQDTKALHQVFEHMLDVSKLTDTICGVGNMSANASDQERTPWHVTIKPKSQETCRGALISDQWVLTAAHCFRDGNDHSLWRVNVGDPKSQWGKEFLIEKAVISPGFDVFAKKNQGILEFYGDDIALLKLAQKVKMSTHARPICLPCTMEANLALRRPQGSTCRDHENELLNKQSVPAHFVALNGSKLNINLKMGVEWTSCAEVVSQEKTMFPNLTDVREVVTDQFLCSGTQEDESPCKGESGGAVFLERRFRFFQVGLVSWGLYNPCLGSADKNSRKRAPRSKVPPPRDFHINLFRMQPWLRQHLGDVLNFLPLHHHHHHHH

human C2 K415A = biological target: T2, human C2 K415A (human, UniProt P06681 21-752)
T2 sequence: T1 sequence with A250F, K395A

human C2 D282A = biological target: T3, human C2 D282A (human, UniProt P06681 21-752)
T3 sequence: T1 sequence with A250F, D262A

human C2 K430A = biological target: T4, human C2 K430A (human, UniProt P06681 21-752)
T4 sequence: T1 sequence with A250F, K410A

B1: RF16-242 (antibody, human IgG4 S228P, lambda, V domains shown)
VH: EVQLLQSGAEVKKPGESLKISCKGSGYSFTSYWIGWVRQMPGKGLEWMGIIYPGDSDTRYSPSFQGQVTISADKSISTAYLQWSSLKASDTAMYYCARRGHYGDYFDYWGQGTLVTVSS
VL: SYELTQPPSVSVSPGQTARITCSGDALPKKYAYWYHQKSGQAPVLVIYEDRRRPSEIPERFSGSSSGTMATLTITGAQVEDEGVYFCYSRDRAGNQRVFGGGTQLTVLG
notes: pH-dependent anti-C2 antibody from a phage display library
- Fold diff (human C2 F270A): 15 fold
- Fold diff (human C2 K415A): 1 fold
- Fold diff (human C2 D282A): 1 fold
- Fold diff (human C2 K430A): 13 fold
